Reference: IntAct's records for PubMed 26555173

B1: Sterol regulatory element-binding protein cleavage-activating protein (Cricetulus griseus (Chinese hamster)), P97260 (parent)
chain: MTLTERLREKISQAFYNHGLLCASYPIPIILFTGLCILACCYPLLKLPLPGTGPVEFSTPVKDYSPPPVDSDHKQGEPSEQPEWYVGAPVAYIQQIFVKSSVSPWHKNLLAVDVFRLPLSRAFQLVEEIRNHVLRDSSGTKSLEEVCLQVTDLLPGLRKLRNLLPEHGCLLLSPGNFWQNDWERFHADPDIIGTIHQHEPKTLQTSATLKDLLFGVPGKYSGVSLYTRKRTVSYTITLVFQRYHAKFLSSLRARLMLLHPSPNCSLRAENLVHVHFKEEIGIAELIPLVTTYIILFAYIYFSTRKIDMVKSKWGLALAAVVTVLSSLLMSVGLCTLFGLTPTLNGGEIFPYLVVVIGLENVLVLTKSVVSTPVDLEVKLRIAQGLSSESWSIMKNVATELGIILIGYFTLVPAIQEFCLFAVVGLVSDFFLQMFFFTTVLSIDIRRMELADLNKRLPPESCLPSAKPVGRPARYERQLAVRPAMPHTITLQPSSFRNLRLPKRLRVIYFLARTRLAQRLIMAGTVVWIGILVYTDPAGLRTYLAAQVTEQSPLGEGSLGPMPVPSGVLPASRPDPAFSIFPPDAPKLPENQTVPGELPEHAAPAEGVHDSRAPEVTWGPEDEELWRRLSFRHWPTLFNYYNITLAKRYISLLPVIPVTLRLNPQEALEGRQPQDGRSAWAPPESLPAGLWEAGPKGPGGTQAHGDITLYKVAALGLAAGIVLVLLLLCLYRVLCPRNYGQPGGGAGRRRRGELPCDDYGYAPPETEIVPLVLRGHLMDIECLASDGMLLVSCCLAGQVCVWDAQTGDCLTRIPRPGSRRDSCGGGAFETQENWERLSDGGKTSPEEPGESPPLRHRPRGPPQPALFGDQPDLTCLIDTNFSVQLPPEPTQPEPRHRAGCGRARDSGYDFSRLVQRVYQEEGLAAVRMPALRPPSPGSPLPQASQEDGAAPEKGSPPLAWAPSTAGSIWSLELQGNLIVVGRSSGRLEVWDAIEGVLCCSNDEVSSGITALVFLDRRIVAARLNGSLDFFSLETHTSLSPLQFRGTPGRGSSPSSSVYSSSNTVACHLTHTVPCAHQKPITALRAAAGRLVTGSQDHTLRVFRLEDSCCLFTLQGHSGAITTVYIDQTMVLASGGQDGAICLWDVLTGSRVSHTFAHRGDVTSLTCTTSCVISSGLDDLINIWDRSTGIKLYSIQQDLGCGASLGVISDNLLVTGGQGCVSFWDLNYGDLLQTVYLGKNSEAQPARQILVLDNAAIVCNFGSELSLVYVPSVLEKLD
partner: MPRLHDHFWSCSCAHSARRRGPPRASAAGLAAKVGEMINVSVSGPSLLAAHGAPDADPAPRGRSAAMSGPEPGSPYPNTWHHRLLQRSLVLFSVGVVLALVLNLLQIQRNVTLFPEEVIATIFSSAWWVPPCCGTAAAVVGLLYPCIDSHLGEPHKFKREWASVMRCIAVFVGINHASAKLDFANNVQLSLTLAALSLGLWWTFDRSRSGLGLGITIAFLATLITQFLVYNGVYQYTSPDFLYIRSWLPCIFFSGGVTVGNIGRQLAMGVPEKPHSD

Variants of: B1
Conditions: with insi1_human INSIG1, O15503

| Variant | effect of a mutation on the interaction |
| --- | --- |
| N263E;N590E;N641E | increasing interaction strength |
